Laboratory results from IntAct's records for PubMed 31515488.

B1: F-BAR domain only protein 1 (Homo sapiens), O14526 (parent)
chain: MSYFGEHFWGEKNHGFEVLYHSVKQGPISTKELADFIRERATIEETYSKAMAKLSKLASNGTPMGTFAPLWEVFRVSSDKLALCHLELTRKLQDLIKDVLRYGEEQLKTHKKCKEEVVSTLDAVQVLSGVSQLLPKSRENYLNRCMDQERLRRESTSQKEMDKAETKTKKAAESLRRSVEKYNSARADFEQKMLDSALRFQAMEETHLRHMKALLGSYAHSVEDTHVQIGQVHEEFKQNIENVSVEMLLRKFAESKGTGREKPGPLDFEAYSAAALQEAMKRLRGAKAFRLPGLSRREREPEPPAAVDFLEPDSGTCPEVDEEGFTVRPDVTQNSTAEPSRFSSSDSDFDDEEPRKFYVHIKPAPARAPACSPEAAAAQLRATAGSLILPPGPGGTMKRHSSRDAAGKPQRPRSAPRTSSCAERLQSEEQVSKNLFGPPLESAFDHEDFTGSSSLGFTSSPSPFSSSSPENVEDSGLDSPSHAAPGPSPDSWVPRPGTPQSPPSCRAPPPEARGIRAPPLPDSPQPLASSPGPWGLEALAGGDLMPAPADPTAREGLAAPPRRLRSRKVSCPLTRSNGDLSRSLSPSPLGSSAASTALERPSFLSQTGHGVSRGPSPVVLGSQDALPIATAFTEYVHAYFRGHSPSCLARVTGELTMTFPAGIVRVFSGTPPPPVLSFRLVHTTAIEHFQPNADLLFSDPSQSDPETKDFWLNMAALTEALQRQAEQNPTASYYNVVLLRYQFSRPGPQSVPLQLSAHWQCGATLTQVSVEYGYRPGATAVPTPLTNVQILLPVGEPVTNVRLQPAATWNLEEKRLTWRLPDVSEAGGSGRLSASWEPLSGPSTPSPVAAQFTSEGTTLSGVDLELVGSGYRMSLVKRRFATGMYLVSC
B2: Asc-type amino acid transporter 1 (Homo sapiens), Q9NS82 (parent)
chain: MAGHTQQPSGRGNPRPAPSPSPVPGTVPGASERVALKKEIGLLSACTIIIGNIIGSGIFISPKGVLEHSGSVGLALFVWVLGGGVTALGSLCYAELGVAIPKSGGDYAYVTEIFGGLAGFLLLWSAVLIMYPTSLAVISMTFSNYVLQPVFPNCIPPTTASRVLSMACLMLLTWVNSSSVRWATRIQDMFTGGKLLALSLIIGVGLLQIFQGHFEELRPSNAFAFWMTPSVGHLALAFLQGSFAFSGWNFLNYVTEEMVDARKNLPRAIFISIPLVTFVYTFTNIAYFTAMSPQELLSSNAVAVTFGEKLLGYFSWVMPVSVALSTFGGINGYLFTYSRLCFSGAREGHLPSLLAMIHVRHCTPIPALLVCCGATAVIMLVGDTYTLINYVSFINYLCYGVTILGLLLLRWRRPALHRPIKVNLLIPVAYLVFWAFLLVFSFISEPMVCGVGVIIILTGVPIFFLGVFWRSKPKCVHRLTESMTHWGQELCFVVYPQDAPEEEENGPCPPSLLPATDKPSKPQ
partner: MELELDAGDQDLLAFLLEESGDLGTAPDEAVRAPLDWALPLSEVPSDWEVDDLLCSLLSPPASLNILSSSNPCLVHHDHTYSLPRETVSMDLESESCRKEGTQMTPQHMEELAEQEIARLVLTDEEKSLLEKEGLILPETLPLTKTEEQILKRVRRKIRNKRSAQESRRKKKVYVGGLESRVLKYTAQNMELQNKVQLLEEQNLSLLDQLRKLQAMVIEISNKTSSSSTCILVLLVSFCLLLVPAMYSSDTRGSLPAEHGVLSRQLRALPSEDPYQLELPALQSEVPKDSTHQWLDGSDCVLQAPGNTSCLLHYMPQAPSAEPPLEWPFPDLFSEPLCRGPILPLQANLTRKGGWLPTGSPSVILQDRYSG
B3: Keratin, type II cytoskeletal 6A (Homo sapiens), P02538 (parent)
chain: MASTSTTIRSHSSSRRGFSANSARLPGVSRSGFSSVSVSRSRGSGGLGGACGGAGFGSRSLYGLGGSKRISIGGGSCAISGGYGSRAGGSYGFGGAGSGFGFGGGAGIGFGLGGGAGLAGGFGGPGFPVCPPGGIQEVTVNQSLLTPLNLQIDPTIQRVRAEEREQIKTLNNKFASFIDKVRFLEQQNKVLETKWTLLQEQGTKTVRQNLEPLFEQYINNLRRQLDSIVGERGRLDSELRGMQDLVEDFKNKYEDEINKRTAAENEFVTLKKDVDAAYMNKVELQAKADTLTDEINFLRALYDAELSQMQTHISDTSVVLSMDNNRNLDLDSIIAEVKAQYEEIAQRSRAEAESWYQTKYEELQVTAGRHGDDLRNTKQEIAEINRMIQRLRSEIDHVKKQCANLQAAIADAEQRGEMALKDAKNKLEGLEDALQKAKQDLARLLKEYQELMNVKLALDVEIATYRKLLEGEECRLNGEGVGQVNISVVQSTVSSGYGGASGVGSGLGLGGGSSYSYGSGLGVGGGFSSSSGRAIGGGLSSVGGGSSTIKYTTTSSSSRKSYKH
B4: Mevalonate kinase (Homo sapiens), Q03426 (parent)
chain: MLSEVLLVSAPGKVILHGEHAVVHGKVALAVSLNLRTFLRLQPHSNGKVDLSLPNIGIKRAWDVARLQSLDTSFLEQGDVTTPTSEQVEKLKEVAGLPDDCAVTERLAVLAFLYLYLSICRKQRALPSLDIVVWSELPPGAGLGSSAAYSVCLAAALLTVCEEIPNPLKDGDCVNRWTKEDLELINKWAFQGERMIHGNPSGVDNAVSTWGGALRYHQGKISSLKRSPALQILLTNTKVPRNTRALVAGVRNRLLKFPEIVAPLLTSIDAISLECERVLGEMGEAPAPEQYLVLEELIDMNQHHLNALGVGHASLDQLCQVTRARGLHSKLTGAGGGGCGITLLKPGLEQPEVEATKQALTSCGFDCLETSIGAPGVSIHSATSLDSRVQQALDGL

Variants of: B1
Conditions: with ptk6_human PTK6, Q13882

Effect of a mutation on the interaction, with no effect:
E423G

Variants of: B1
Conditions: with exos5_human EXOSC5, Q9NQT4
Chain of exos5_human EXOSC5, Q9NQT4 (Q9NQT4 whole entry): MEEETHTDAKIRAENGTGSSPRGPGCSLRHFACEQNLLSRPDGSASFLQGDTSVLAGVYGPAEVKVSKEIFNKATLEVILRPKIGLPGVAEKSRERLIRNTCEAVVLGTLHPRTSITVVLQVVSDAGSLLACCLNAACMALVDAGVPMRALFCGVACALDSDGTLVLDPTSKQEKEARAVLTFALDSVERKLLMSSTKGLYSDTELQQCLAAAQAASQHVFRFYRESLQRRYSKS

Effect of a mutation on the interaction, with no effect:
E423G

Variants of: B2
Conditions: with creb3_human CREB3, O43889

Effect of a mutation on the interaction, with no effect:
R413Q
R267H

Variants of: B3
Conditions: with KRT17, Q04695
Chain of KRT17, Q04695 (Q04695 whole entry): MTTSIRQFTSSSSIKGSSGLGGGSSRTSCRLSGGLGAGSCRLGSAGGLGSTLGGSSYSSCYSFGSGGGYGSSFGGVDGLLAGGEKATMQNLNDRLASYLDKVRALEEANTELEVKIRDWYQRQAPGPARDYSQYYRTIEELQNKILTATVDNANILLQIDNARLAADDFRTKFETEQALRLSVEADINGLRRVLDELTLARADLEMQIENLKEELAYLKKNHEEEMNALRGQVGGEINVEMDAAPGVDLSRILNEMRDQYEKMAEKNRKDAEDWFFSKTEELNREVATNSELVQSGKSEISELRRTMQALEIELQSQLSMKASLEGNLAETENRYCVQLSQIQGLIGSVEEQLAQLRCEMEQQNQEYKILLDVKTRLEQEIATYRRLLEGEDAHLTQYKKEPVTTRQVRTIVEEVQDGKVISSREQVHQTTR

Effect of a mutation on the interaction, with no effect:
V523F
R415H
R559G
L210M
T552S
A335T

Variants of: B3
Conditions: with tfp11_human TFIP11, Q9UBB9
Chain of tfp11_human TFIP11, Q9UBB9 (Q9UBB9 whole entry): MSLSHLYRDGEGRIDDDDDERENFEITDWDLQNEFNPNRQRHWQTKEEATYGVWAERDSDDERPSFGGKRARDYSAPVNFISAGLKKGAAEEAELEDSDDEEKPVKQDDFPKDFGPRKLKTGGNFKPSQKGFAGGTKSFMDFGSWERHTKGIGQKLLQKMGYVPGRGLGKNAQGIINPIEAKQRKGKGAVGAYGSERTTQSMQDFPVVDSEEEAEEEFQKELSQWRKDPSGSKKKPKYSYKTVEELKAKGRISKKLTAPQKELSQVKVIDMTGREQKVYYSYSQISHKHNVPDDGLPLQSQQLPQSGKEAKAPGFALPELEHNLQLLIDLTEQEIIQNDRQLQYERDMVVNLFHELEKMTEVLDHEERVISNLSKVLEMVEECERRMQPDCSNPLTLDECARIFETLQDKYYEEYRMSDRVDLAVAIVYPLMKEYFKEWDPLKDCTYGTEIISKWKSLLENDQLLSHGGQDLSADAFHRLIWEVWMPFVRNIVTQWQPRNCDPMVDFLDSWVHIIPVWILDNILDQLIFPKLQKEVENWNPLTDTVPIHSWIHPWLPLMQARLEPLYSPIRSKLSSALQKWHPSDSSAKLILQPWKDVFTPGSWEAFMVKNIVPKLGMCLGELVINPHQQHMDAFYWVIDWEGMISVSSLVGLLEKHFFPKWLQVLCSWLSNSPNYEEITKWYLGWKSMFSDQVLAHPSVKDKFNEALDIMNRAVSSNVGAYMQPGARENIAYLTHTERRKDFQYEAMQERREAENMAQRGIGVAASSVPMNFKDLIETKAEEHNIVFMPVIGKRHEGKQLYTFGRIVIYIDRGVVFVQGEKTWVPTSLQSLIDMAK

Effect of a mutation on the interaction, with no effect:
V523F
R415H
R559G
L210M
T552S
A335T

Variants of: B3
Conditions: with KRT15, P19012
Chain of KRT15, P19012 (P19012 whole entry): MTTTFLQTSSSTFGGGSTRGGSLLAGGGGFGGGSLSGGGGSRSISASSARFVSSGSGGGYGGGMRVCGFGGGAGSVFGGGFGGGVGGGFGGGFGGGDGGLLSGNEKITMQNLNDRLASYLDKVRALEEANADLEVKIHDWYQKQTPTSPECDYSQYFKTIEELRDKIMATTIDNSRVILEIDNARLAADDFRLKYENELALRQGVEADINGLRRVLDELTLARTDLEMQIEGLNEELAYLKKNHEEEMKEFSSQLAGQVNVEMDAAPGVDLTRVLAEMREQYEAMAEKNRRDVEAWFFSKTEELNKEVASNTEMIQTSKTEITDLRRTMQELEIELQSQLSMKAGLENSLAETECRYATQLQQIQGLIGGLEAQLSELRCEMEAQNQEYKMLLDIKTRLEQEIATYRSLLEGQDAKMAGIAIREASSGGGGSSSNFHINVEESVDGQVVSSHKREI

Effect of a mutation on the interaction, with no effect:
V523F
R415H
R559G
L210M
T552S
A335T

Variants of: B4
Conditions: with ews_human EWSR1, Q01844
Chain of ews_human EWSR1, Q01844 (Q01844 whole entry): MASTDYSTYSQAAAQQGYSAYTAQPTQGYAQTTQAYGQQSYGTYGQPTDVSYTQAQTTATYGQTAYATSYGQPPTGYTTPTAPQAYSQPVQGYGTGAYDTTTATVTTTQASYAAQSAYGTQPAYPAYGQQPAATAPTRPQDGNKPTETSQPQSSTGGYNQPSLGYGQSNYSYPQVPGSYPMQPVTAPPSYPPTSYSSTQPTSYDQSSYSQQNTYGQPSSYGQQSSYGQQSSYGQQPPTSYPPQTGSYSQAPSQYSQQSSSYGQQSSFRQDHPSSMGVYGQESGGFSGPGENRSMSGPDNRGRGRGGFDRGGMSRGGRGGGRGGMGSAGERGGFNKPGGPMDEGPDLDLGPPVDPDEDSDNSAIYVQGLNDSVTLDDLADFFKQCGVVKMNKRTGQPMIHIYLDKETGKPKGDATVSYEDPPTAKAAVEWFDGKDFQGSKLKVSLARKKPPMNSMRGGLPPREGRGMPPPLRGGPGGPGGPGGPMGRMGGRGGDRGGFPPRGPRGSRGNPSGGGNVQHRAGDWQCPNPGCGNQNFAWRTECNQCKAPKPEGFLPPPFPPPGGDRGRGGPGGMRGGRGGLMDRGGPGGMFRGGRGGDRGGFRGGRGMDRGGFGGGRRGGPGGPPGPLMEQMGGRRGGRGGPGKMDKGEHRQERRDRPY

Effect of a mutation on the interaction, with no effect:
H20Q
